Measured values reported in US20060084618, “Adiponectin promoter and use thereof” (published 2006).

B1: adiponectin LRH-RE probe (-245 to -221) (dsDNA)
DNA 1: AATAAGGGTCAAGGCCTGGAAACAC
DNA 2: GTGTTTCCAGGCCTTGACCCTTATT
B2: adiponectin PPRE probe (-291 to -267) (dsDNA)
DNA 1: TGGTTTTGACTTTTGCCCCATCTTC
DNA 2: GAAGATGGGGCAAAAGTCAAAACCA

Tests used:
LRH-1 = LRH-1 (Homo sapiens, UniProt O00482 O00482:1-541); assay: EMSA; conditions as Example 4; competed by 10x and 50x unlabeled wild type; details: protein: synthetic; tags: synthesized in vitro from human LRH-1 expression plasmid; label: 32P
Chain of LRH-1 (O00482 whole entry, one chain of several): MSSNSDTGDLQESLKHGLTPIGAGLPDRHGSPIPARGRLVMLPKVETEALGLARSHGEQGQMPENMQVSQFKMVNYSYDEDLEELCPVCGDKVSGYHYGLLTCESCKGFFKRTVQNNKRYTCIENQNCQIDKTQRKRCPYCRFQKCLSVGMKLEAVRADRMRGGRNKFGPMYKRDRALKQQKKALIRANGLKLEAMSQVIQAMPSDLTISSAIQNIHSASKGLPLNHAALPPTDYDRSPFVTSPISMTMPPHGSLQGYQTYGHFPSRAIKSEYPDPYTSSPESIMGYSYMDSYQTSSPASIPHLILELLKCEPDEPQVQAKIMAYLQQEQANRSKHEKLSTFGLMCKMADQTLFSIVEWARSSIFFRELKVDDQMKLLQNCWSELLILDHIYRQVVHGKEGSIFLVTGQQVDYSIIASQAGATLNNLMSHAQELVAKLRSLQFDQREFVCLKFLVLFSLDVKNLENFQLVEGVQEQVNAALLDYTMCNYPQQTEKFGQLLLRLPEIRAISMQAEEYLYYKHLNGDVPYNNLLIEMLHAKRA
Description: To confirm the direct binding of LRH-1 to the regulatory sequence LRH-RE found in human adiponectin promoter region, gel shift assay was executed. […] LRH-1 protein used was synthesized in vitro using human LRH-1 expression plasmid as template. […] In the competitive reaction, identical oligoDNAs to the labeled probe were used as wild-type competitors. […] 10 times or 50 times higher concentration of each unlabeled oligoDNAs was added into the reaction.

PPARγ/RXRα heterodimer = PPARγ/RXRα heterodimer (Homo sapiens, UniProt P37231;P19793 P37231:1-505,P19793:1-462); assay: EMSA; poly(dI-dC), 25 C 20 min then 4 C 15 min; band when both PPARγ and RXRα present; competed by 10x and 50x unlabeled wild type; details: tags: TNT T7 Quick Coupled (Promega); label: 32P
Chain of PPARγ/RXRα heterodimer (P37231 whole entry, chain 1 of 2): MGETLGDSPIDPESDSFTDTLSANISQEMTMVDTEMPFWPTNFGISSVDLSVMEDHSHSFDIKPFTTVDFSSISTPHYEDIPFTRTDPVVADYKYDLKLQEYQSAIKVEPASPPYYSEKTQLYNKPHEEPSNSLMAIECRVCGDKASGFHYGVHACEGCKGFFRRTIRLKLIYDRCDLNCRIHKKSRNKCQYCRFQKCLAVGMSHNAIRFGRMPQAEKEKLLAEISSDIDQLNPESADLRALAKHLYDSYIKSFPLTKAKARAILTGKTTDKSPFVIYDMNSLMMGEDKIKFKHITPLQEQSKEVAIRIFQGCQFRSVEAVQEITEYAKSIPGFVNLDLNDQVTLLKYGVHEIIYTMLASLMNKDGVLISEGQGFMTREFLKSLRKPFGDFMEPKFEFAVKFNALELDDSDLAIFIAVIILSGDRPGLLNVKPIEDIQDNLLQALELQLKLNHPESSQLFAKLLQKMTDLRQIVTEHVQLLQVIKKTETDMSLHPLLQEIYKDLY
Chain of PPARγ/RXRα heterodimer (P19793 whole entry, chain 2 of 2): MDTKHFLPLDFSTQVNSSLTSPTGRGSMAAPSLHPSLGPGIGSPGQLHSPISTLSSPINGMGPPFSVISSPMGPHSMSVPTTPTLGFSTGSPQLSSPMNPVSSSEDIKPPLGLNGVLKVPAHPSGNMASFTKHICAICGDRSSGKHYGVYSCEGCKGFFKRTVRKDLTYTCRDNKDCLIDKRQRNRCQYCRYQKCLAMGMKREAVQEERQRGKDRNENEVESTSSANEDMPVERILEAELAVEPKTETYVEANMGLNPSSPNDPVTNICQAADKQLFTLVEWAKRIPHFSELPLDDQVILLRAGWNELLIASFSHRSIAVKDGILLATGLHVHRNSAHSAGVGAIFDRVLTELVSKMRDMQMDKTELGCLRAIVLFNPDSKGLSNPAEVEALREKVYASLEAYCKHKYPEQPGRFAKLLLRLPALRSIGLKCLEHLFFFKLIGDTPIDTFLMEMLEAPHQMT
Description: For the binding reaction, human PPARγ and RXRα protein were synthesized in vitro by using TNT T7 Quick Coupled Transcription/Translation Systems (Promega corporation) according to a supplyer's protocol. […] The binding reaction was performed in 20 μl of a solution including 1 μg of poly (dI-dC), 1 μl of the in vitro synthesized nuclear receptor solution, and 200,000 cpm of the labeled probe. After mixing, it was incubated for 20 minutes at 25° C. and was left for 15 minutes at 4° C. The labeled probe binding to nuclear receptors was separated from the free probe by electrophoresis using 4% of polyacrylamide gel. The electrophoresis was executed using 0.5× TBE buffer (45 mM Tris, 45 mM boric acid, and 1 m M EDTA) for 90 minutes under a voltage of 200V. After the electrophoresis, the gel was dried and analyzed by BAS2500 system (Fuji Photo Film Co., Ltd.). To confirm that the labeled probe binds to nuclear receptors specifically, the competitive reactions were executed.

| Binder | binding result (LRH-1) | binding result (PPARγ/RXRα heterodimer) |
| --- | --- | --- |
| B1 | binds |  |
| B2 |  | binds |
